From patent US20020115843A1

Legend:
Test in all cases: cell-based or functional assay
[1] = biological target: dipeptidyl peptidase IV (DPPIV) (UniProt P27487)
[2] = biological target: myc-His tagged DPRP-2 (expressed from pcDNA-MycHis-DPRP2) (human) (UniProt Q86TI2)
[3] = biological target: myc-His tagged DPRP-1 (expressed from pcDNA-MycHis-DPRP1) (human) (UniProt Q6V1X1)
Sequence of myc-His tagged DPRP-1 (expressed from pcDNA-MycHis-DPRP1) (human) (Q6V1X1 17-898): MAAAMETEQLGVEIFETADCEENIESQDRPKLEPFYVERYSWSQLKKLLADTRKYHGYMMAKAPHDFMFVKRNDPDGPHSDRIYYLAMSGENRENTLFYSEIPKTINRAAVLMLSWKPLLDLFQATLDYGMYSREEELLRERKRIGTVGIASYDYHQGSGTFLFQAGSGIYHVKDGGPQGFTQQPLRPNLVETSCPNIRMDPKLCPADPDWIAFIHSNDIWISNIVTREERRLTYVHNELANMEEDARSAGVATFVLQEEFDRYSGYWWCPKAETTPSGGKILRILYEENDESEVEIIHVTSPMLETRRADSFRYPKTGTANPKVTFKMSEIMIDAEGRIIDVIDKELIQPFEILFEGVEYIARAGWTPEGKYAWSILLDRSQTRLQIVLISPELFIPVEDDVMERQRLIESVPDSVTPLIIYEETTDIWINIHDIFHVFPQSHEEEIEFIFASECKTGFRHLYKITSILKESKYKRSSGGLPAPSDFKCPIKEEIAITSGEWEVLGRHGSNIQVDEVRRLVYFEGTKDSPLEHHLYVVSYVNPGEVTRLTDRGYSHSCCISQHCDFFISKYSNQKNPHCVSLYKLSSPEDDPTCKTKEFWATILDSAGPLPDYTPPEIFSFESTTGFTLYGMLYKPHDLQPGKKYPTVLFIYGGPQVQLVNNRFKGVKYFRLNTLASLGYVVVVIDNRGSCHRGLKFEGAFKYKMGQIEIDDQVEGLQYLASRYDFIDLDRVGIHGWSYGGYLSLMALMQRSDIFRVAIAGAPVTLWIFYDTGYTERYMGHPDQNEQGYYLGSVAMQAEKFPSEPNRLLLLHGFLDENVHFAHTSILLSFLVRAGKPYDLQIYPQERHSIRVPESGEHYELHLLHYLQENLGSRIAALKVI

Sequence of dipeptidyl peptidase IV (DPPIV) (P27487 39-766 limits assumed): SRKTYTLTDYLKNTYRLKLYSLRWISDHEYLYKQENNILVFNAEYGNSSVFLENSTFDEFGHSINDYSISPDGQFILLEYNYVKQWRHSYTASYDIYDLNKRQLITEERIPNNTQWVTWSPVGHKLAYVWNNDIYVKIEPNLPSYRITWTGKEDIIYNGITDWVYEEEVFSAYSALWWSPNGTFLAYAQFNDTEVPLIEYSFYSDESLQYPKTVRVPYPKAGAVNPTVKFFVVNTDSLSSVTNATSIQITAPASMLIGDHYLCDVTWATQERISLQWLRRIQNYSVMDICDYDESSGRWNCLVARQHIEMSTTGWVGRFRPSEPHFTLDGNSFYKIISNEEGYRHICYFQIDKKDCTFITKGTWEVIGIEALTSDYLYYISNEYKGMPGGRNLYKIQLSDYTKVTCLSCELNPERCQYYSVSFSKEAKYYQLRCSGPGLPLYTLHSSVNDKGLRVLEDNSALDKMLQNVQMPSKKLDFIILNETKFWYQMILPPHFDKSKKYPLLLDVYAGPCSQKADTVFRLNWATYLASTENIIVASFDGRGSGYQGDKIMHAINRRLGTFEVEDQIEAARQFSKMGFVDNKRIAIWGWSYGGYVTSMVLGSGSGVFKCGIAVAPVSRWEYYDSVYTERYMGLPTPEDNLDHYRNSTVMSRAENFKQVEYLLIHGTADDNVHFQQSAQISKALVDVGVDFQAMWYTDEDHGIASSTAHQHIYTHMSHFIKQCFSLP
Sequence of myc-His tagged DPRP-2 (expressed from pcDNA-MycHis-DPRP2) (human) (Q86TI2 whole entry): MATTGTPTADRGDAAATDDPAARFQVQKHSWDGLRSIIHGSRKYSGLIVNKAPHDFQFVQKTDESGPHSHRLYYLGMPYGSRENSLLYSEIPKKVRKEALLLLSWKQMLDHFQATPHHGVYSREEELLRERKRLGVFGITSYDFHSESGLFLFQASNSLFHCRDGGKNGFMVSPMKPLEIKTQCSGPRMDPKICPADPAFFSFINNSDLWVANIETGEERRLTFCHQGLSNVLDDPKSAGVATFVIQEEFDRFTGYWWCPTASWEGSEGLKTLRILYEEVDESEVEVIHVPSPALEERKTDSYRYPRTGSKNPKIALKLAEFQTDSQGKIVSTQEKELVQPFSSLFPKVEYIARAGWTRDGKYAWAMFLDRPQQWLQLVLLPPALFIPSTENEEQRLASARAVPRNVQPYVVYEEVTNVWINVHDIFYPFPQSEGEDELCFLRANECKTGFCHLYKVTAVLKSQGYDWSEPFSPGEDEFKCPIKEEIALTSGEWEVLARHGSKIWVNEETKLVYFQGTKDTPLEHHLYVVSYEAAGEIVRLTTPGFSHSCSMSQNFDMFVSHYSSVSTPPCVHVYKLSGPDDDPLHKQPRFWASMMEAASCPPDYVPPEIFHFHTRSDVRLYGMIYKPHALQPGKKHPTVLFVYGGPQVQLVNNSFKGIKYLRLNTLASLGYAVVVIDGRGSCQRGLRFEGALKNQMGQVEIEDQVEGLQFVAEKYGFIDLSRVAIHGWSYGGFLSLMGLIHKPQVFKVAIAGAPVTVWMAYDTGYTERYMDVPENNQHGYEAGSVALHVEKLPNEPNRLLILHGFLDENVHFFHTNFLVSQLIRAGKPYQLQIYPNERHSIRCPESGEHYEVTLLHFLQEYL

Substance	Residual activity (% of control), Ala-Pro-AMC cleavage, inhibitor at 2 µg/ml [1]	Residual activity (% of control), Ala-Pro-AMC cleavage, inhibitor at 2 µg/ml [2]	Residual activity (% of control), Ala-Pro-AMC cleavage, inhibitor at 2 µg/ml [3]	Residual activity (% of control), Ala-Pro-AMC cleavage, inhibitor at 50 µg/ml [1]	Residual activity (% of control), Ala-Pro-AMC cleavage, inhibitor at 50 µg/ml [2]	Residual activity (% of control), Ala-Pro-AMC cleavage, inhibitor at 50 µg/ml [3]
Pepstatin (peptide)	93.5 % of control	95 % of control	97.3 % of control			
Leupeptin (peptide)				90.7 % of control	90.4 % of control	91.1 % of control
